These results are taken from publication PMC9122904, “Insights into the client protein release mechanism of the ATP-independent chaperone Spy” (Nature Communications, 2022).

Assay in all cases: BLI; Octet RED96; client biotinylated and loaded on streptavidin sensors; Spy or Spy variant in solution at 0.25, 0.5, 1, 1.5 and 2 μM; 40 mM HEPES, 150 mM NaCl, pH 7.5; Kd calculated as koff/kon
What all share (settings): both partners purified

One assay concerns the target T1, Spy_(27-127) (UniProt P77754 50-150).
T1 construct: Spy chaperone, residues 27-127; source: E. coli BL21 (DE3), purified (Ni-NTA, cation exchange, SEC); not shown: His6, N-terminal, cleaved; SUMO, N-terminal, cleaved
T1 sequence (looked up): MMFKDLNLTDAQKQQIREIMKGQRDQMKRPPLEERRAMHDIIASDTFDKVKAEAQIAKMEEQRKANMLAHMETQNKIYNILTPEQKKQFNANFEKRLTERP
The method in brief: (§1)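 Association was recorded with an Octet RED96 as streptavidin sensors carrying client proteins, biotinylated with EZ-link NHS-biotin at a 1:1 molar ratio, sat in 40 mM HEPES, 150 mM NaCl, pH 7.5 with 0.25 to 2 μM of the analyte protein (0.25, 0.5, 1, 1.5 and 2 μM). Dissociation followed after transfer to analyte-free buffer. Both wavelength-shift phases were fitted in SigmaPlot 12.0 to obtain koff and the observed association rate, whose dependence on analyte concentration yielded kon, with Kd defined as koff divided by kon.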

A further assay has as its target T2, Spy_(27-124) (UniProt P77754 50-147).
T2 construct: source: E. coli BL21 (DE3), purified (Ni-NTA, cation exchange, SEC); not shown: His6, N-terminal, cleaved; SUMO, N-terminal, cleaved
T2 sequence (looked up): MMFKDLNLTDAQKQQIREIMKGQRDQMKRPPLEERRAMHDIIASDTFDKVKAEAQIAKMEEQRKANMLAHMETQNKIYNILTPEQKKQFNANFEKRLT
An outline of the steps: as §1

A further assay has as its target T3, Spy_(29-138) (UniProt P77754 52-161).
T3 construct: source: E. coli BL21 (DE3), purified (Ni-NTA, cation exchange, SEC); not shown: His6, N-terminal, cleaved; SUMO, N-terminal, cleaved
T3 sequence (looked up): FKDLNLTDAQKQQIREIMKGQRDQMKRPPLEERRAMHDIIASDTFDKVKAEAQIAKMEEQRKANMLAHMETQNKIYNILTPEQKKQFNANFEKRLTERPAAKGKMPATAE
The method in brief: as §1

The target in another assay is T4, Spy_(29-127) (UniProt P77754 52-150).
T4 construct: Spy chaperone, residues 29-127; source: E. coli BL21 (DE3), purified (Ni-NTA, cation exchange, SEC); not shown: His6, N-terminal, cleaved; SUMO, N-terminal, cleaved
T4 sequence (looked up): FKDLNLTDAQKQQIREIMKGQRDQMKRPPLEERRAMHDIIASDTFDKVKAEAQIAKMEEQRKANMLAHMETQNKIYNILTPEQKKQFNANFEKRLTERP
The method in brief: as §1

The target of a further assay is T5, Spy_(21-127) (UniProt P77754 44-150).
T5 construct: Spy chaperone, residues 21-127; source: E. coli BL21 (DE3), purified (Ni-NTA, cation exchange, SEC); not shown: His6, N-terminal, cleaved; SUMO, N-terminal, cleaved
T5 sequence (looked up): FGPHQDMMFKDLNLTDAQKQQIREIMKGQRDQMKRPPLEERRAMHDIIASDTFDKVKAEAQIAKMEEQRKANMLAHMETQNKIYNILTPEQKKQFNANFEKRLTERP
An outline of the steps: as §1

Another assay deals with T6, Spy_(21-124) (UniProt P77754 44-147).
T6 construct: source: E. coli BL21 (DE3), purified (Ni-NTA, cation exchange, SEC); not shown: His6, N-terminal, cleaved; SUMO, N-terminal, cleaved
T6 sequence (looked up): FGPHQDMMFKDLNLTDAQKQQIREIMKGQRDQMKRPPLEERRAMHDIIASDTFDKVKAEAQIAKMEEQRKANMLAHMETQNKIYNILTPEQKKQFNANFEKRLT
The method in brief:
as §1

For a further assay, the target named is T7, Spy_(27-130) (UniProt P77754 50-153).
T7 construct: Spy chaperone, residues 27-130; source: E. coli BL21 (DE3), purified (Ni-NTA, cation exchange, SEC); not shown: His6, N-terminal, cleaved; SUMO, N-terminal, cleaved
T7 sequence (looked up): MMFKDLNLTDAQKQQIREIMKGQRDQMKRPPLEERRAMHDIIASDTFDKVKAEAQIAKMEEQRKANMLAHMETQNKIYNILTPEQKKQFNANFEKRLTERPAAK
An outline of the steps: as §1

In another assay the target is T8, Spy_(K54D R55D) (UniProt P77754 24-161, K54D | R55D).
T8 construct: source: E. coli BL21 (DE3), purified (Ni-NTA, cation exchange, SEC); not shown: His6, N-terminal, cleaved; SUMO, N-terminal, cleaved
T8 sequence (looked up): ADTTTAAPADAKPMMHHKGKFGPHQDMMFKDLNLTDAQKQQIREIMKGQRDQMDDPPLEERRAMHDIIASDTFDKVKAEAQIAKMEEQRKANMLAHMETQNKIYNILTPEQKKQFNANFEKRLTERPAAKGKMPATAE
An outline of the steps:
as §1

B1: Im7 H40W L53A I54A (natural protein)
chain: MELKNSISDYTEAEFVQLLKEIEKENVAATDDVLDVLLEWFVKITEHPDGTDAAYYPSDNRDDSPEGIVKEIKEWRAANGKPGFKQG
modifications: biotin (EZ-link NHS-biotin, 1:1 molar ratio of biotin to protein)
notes: Im7 (colicin E7 immunity protein) with H40W L53A I54A; Spy was made with an N-terminal His6-SUMO tag that was cleaved; also called Im7AAW; partially folded client; source: purified by a similar procedure to Spy
The term Kd denotes the constant that tells how readily two partners part at equilibrium. As a reminder, the koff is the first-order rate constant of dissociation. In the case of B1, the Kd in the assay with Spy_(27-127) is 300 nM; with Spy_(27-124) it was 283 nM; with Spy_(29-138) it was 313 nM; with Spy_(29-127) it was 310 nM; with Spy_(21-127), 1980 nM; with Spy_(21-124), 1820 nM. The dissociation constant (Kd) in the assay with Spy_(27-130) was 297 nM. Moreover, in the assay with Spy_(K54D R55D), the off-rate (koff) is 0.0743 s⁻¹.
